In the supplement of paper PMC10567573:

B1: SLC6A17 (parent)
chain: KAVEEELDAEDRPAWNSKLQYILA

Variants of: B1
Assay: protein stability index of a GFP-peptide fusion (GPS, HEK-293T) (PSI 1-6); higher = more stable
Conditions: c terminus: a fixed tail appended
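Also: lentivirally expressed fusions sorted by FACS into six bins by GFP to DsRed ratio, PSI derived from sequencing read proportions per bin multiplied by bin number.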

Protein stability index of substitutions, site by site:
W15: C 3.64; D 3.94; A 3.89
D8: M 1.92; Y 2.08; E 2.64; F 2.19; W 1.83; H 2.55; C 2.14; T 2.57; R 2.75; V 2.91; L 1.77; I 2.57; P 3.77; Q 2.25; N 2.46; G 2.07; A 3.21; S 3.15; K 2.93
E5: N 1.63; K 2.08; R 2.04; H 2.32; L 2.14; G 1.89; P 2.7; I 2.19; F 1.91; T 2.33; S 2.51; D 1.75; Y 1.66; M 2.05; V 2.9; Q 1.96
E10: K 2.5; C 2.23; Y 1.93; W 1.76; G 3.72; N 2.57; H 1.84; P 2.28; I 1.86; F 2.63; V 1.9; D 2.52; M 1.47; L 2.15; T 2.44; A 2.27; R 2.83; Q 1.67
K1: C 1.62; E 3.19; T 2.39; Q 2.82; V 3.64; P 3.03; W 1.74; M 2.77; H 2.83; N 3.17; F 2.71; Y 2.05; G 3.25; I 2.12; D 2.96; A 2.65; R 2.34; L 2.08; S 3.24
A2: W 1.49; N 2.61; C 2.21; P 2.68; M 2.43; L 1.55; Y 2.51; H 2.24; F 1.93; G 2.81; S 2.81; D 2.65; R 2.28; E 1.96; Q 3; K 2.46; T 1.83; I 2.19; V 2.23
D11: Y 1.42; G 3.55; V 2; F 2.07; P 2.02; W 2.16; S 1.98; Q 2.12; H 2.59; T 2.65; L 1.79; R 2.54; I 2.54; A 3.08; C 1.99; K 2.67; N 2.28; M 1.69
P13: L 1.85; N 2.31; G 2.71; Y 2.65; K 2.57; I 1.42; M 2.79; R 2.44; H 2.21; T 3.06; C 2.28; W 2.88; A 1.54; F 2.63; E 2.41; D 2.72; S 2.27
E4: C 2.31; P 2.54; T 3.27; N 2.63; W 1.4; A 2.79; G 2.12; M 1.78; Q 2.51; V 2.03; D 2.79; F 1.43; S 2.21; Y 1.8; L 3.26; K 2.52; H 2.24; R 2.98
V3: P 2.58; M 2.19; A 3.18; N 3.07; Q 2.91; H 1.52; E 2.75; R 3.14; T 2.43; W 1.7; Y 2.2; L 2.31; C 2.77; F 2.29; D 3.66; I 2.41; K 2.94; G 2.79; S 2.65
A9: W 2.06
